The source of these data is patent US20130183688A1 (BRIGHAM AND WOMEN S HOSPITAL, published 2013).

In test [1] the target is T1, murine galectin-9 long isoform (galectin-9-L), expressed in transiently transfected CHO cells (mouse, UniProt O08573 1-353).
T1 construct: Expressed from pIRES2-EGFP in CHO cells; intracellular staining of fixed cells
The experiment in a line: intracellular staining of transfected CHO cells, anti-human IgG-Fc-PE, flow cytometry. The text has this:
FIG. 11A Both regular and long isoforms for galectin-9 (galectin-9 and galectin-9-L respectively) are able to bind to TIM-3. Protein sequences between two galectin-9 isoforms are identical except a 31 amino acid peptide insert in the hinge region of galectin-9-L. Murine cDNAs for isoforms of galectin-9 from TK-1 cells were subcloned into a eukaryotic bicistronic expression vector pIRES2-EGFP. The plasmids were transiently transfected into CHO cells respectively. Cells were fixed for intracellular staining with flTIM-3-Ig (top row graphs), sTIM-3-Ig (center row graphs), and hIgG (bottom row graphs) and detected by anti-human IgG-Fc-PE 48 hours after transfection. EGFP positive signals in FACS analyses indicated transfected cells. The anti-human IgG-Fc-PE was used to detect the binding from Ig fusions or hIgG. FIG. 11B Murine cDNAs for galectin-9 (first column graphs), -4 (second column graphs), -3 (third column graphs), and -1 (fourth column graphs) were subcloned into pIRES2-EGFP. […]
To confirm the interaction between galectin-9 and TIM-3, both galectin-9 isoform cDNAs were subcloned into an expression vector that bicistronically expresses EGFP protein. […] In transient transfection, expression of galectin-9 was not detected on the cell surface. […]
On the technique in general: In flow cytometry, cells or beads pass a laser one at a time.

The target in test [2] is T2, galectin-9 R64A (mutation in N-terminal CRD domain), expressed in CHO cells (mouse, UniProt O08573 1-353).
T2 construct: Intracellular staining; also called mutant galectin-9 N-terminal CRD
T2 sequence (O08573 other isoform, or with tags, fused parts or gaps R64A R64A): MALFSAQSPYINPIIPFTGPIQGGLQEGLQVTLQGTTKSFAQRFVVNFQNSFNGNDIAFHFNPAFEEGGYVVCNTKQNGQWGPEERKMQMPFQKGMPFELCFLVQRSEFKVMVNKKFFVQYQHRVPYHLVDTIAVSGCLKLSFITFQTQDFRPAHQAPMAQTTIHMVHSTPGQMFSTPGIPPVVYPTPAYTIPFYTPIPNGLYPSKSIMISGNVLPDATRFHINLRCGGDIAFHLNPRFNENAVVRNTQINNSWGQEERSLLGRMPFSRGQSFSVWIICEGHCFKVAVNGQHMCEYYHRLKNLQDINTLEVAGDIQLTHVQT
Briefly: intracellular staining of transfected CHO cells by sTIM-3-Ig, flow cytometry. Here is the method: (§1) FIGS. 12A-12C show galectin-9 recognizes the β-galactoside bond in oligosaccharide chains of TIM-3. FIG. 12A Galectin-9 expression plasmid was transiently transfected into CHO cells and fixed for intracellular staining by sTIM-3-Ig. Incubation buffers with different concentrations from 0 to 100 mM of α-lactose were used in the experiments. Bars in the histograph represent percentage of double positive cell population for EGFP and sTIM-3-Ig staining in presence of different concentration of a-lactose. FIG. 12B Two μg of r-galectin-9 was mixed with 4 μg sTIM-3-Ig in presence of different concentration of a-lactose from 0 to 100 mM in a pull-down experiment. Elutes from protein G beads were applied to SDS-PAGE and stained by Coomassie blue. A band at 50 kD represents sTIM-3-Ig, and the one at 38 kD stands for r-galectin-9. FIG. 12C CRD domains in galectin-9 are required for interaction with TIM-3. Constructs with mutation of R64A in N-terminal CRD domain (second column graphs), R238A in C-terminal CRD domain (third column graphs), or both (fourth column graphs) were generated and subcloned into expression vector pIRES2-EGFP. CHO cells were transiently transfected by wt (first column graphs) and mutant galection-9 expression plasmids (second through fourth column graphs) for intracellular staining by sTIM-3-Ig. EGFP and anti-human IgG-Fc-PE double positive standard for interaction between galectin-9 and sTIM-3-Ig.

In test [3] the target is T3, galectin-9 R238A (mutation in C-terminal CRD domain), expressed in CHO cells (mouse, UniProt O08573 1-353).
T3 construct: Intracellular staining; also called mutant galectin-9 C-terminal CRD
T3 sequence (O08573 other isoform, or with tags, fused parts or gaps R238A R238A): as the sequence (O08573 other isoform, or with tags, fused parts or gaps R64A R64A) above, with A64R, R238A counted along it
Described as above. Here is the method:
as §1

Test [4] concerns the target T4, galectin-9 R64A and R238A (double mutation in both CRD domains), expressed in CHO cells (mouse, UniProt O08573 1-353).
T4 construct: Intracellular staining; also called double mutant galectin-9
The description is as above. The method, then:
as §1

Test [5] deals with T5, galectin-9 of TK-1 cells (biotinylated membrane associated 40 to 60 kD band, 35 kD after PNGase F) (UniProt O08573-2 1-322, limits assumed, surface biotinylated with NHS-LC-Biotin).
T5 construct: Endogenous protein pulled down from cell lysate; also called 35 kD protein
T5 sequence (O08573 other isoform, or with tags, fused parts or gaps limits assumed): as the sequence (O08573 other isoform, or with tags, fused parts or gaps R64A R64A) above, with A64R, D150N counted along it
Briefly: pull-down from lysate of surface biotinylated TK-1 cells, Protein G-agarose, Western blot. The method, then: FIG. 10A TK-1 cells express the highest level of TIM-3 ligand(s). Three T cell lines, TK-1, S49.1G.3PHA 100/0, and BW1547.G.1.4, were stained by biotinylated sTIM-3-Ig (0.4 mg/ml) at 1:20 (top row graphs) and 1:50 dilutions (center row graphs), and detected by anti-human IgG-Fc-PE for the TIM-3 ligand expression. All T cell lines are stained positively by TIM-3 fusions FACS analysis, among which up to 90% of TK-1 were positively stained by both flTIM-3-Ig and sTIM-3-Ig (bottom row graphs). […] Extracellular membrane associated proteins on live TK-1 cells were biotinylated by NHS-LC-Biotin in PBS pH7.9 buffer at room temperature. Reaction was stopped by DMEM medium after 1 hour incubation. Cell lysate from the biotinylated TK-1 cells was used in pull-down experiment by incubating with 5 μg flTIM-3-Ig, sTIM-3-Ig, TIM-2-Ig, and hIgG respectively plus Protein G-agarose beads at 4° C. Protein samples eluted from beads were treated with or without PNGase F to remove N-linked sugar chains, and applied to SDS-PAGE and Western blot. Only signals from biotinylated membrane associated proteins bound to avidin conjugated peroxidase and were detected by chemiluminescent signal. […]

The target in test [6] is T6, murine galectin-9 (regular isoform), expressed in transiently transfected CHO cells (mouse, UniProt O08573 1-353).
T6 construct: Expressed from pIRES2-EGFP in CHO cells; not found on the cell surface, detected by intracellular staining of fixed cells; also called regular galectin-9; wt galectin-9
T6 sequence (O08573 other isoform, or with tags, fused parts or gaps): as the sequence (O08573 other isoform, or with tags, fused parts or gaps R64A R64A) above, with A64R counted along it
Briefly: intracellular staining of galectin-9 transfected CHO cells, flow cytometry.

Test [7] concerns the target T7, recombinant galectin-9 (r-galectin-9) (mouse, UniProt O08573 1-353).
T7 construct: Any vector-derived tag is not described; also called purified recombinant galectin-9
The experiment in a line: pull-down with protein G beads, SDS-PAGE, Coomassie blue. The text has this:
FIG. 11A Both regular and long isoforms for galectin-9 (galectin-9 and galectin-9-L respectively) are able to bind to TIM-3. Protein sequences between two galectin-9 isoforms are identical except a 31 amino acid peptide insert in the hinge region of galectin-9-L. Murine cDNAs for isoforms of galectin-9 from TK-1 cells were subcloned into a eukaryotic bicistronic expression vector pIRES2-EGFP. The plasmids were transiently transfected into CHO cells respectively. Cells were fixed for intracellular staining with flTIM-3-Ig (top row graphs), sTIM-3-Ig (center row graphs), and hIgG (bottom row graphs) and detected by anti-human IgG-Fc-PE 48 hours after transfection. EGFP positive signals in FACS analyses indicated transfected cells. The anti-human IgG-Fc-PE was used to detect the binding from Ig fusions or hIgG. FIG. 11B Murine cDNAs for galectin-9 (first column graphs), -4 (second column graphs), -3 (third column graphs), and -1 (fourth column graphs) were subcloned into pIRES2-EGFP. The plasmids and the empty vector (fifth column graphs) that only produces EGFP were transiently transfected into CHO for intracellular staining by s-TIM-3-Ig respectively. The anti-human IgG-Fc-PE was used to detect sTIM-3-Ig binding. FIG. 11C Galectin-9 cDNA was subcloned into prokaryotic expression vector pTrcHis 2B. […]

T1 sequence (O08573 whole entry, canonical isoform): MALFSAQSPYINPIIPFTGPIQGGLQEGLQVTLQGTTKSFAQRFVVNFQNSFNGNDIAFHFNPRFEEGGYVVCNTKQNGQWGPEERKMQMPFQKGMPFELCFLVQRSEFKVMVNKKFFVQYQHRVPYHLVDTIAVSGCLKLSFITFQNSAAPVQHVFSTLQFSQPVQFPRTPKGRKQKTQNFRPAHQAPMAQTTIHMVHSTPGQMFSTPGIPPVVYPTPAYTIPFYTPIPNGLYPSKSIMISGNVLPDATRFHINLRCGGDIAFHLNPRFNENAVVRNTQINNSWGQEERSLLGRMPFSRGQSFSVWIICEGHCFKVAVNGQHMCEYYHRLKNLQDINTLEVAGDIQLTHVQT
T4 sequence (O08573 other isoform, or with tags, fused parts or gaps R64A R238A R64A R238A): as the sequence (O08573 other isoform, or with tags, fused parts or gaps R64A R64A) above, with R238A counted along it
T7 sequence (O08573 other isoform, or with tags, fused parts or gaps limits assumed): as the sequence (O08573 other isoform, or with tags, fused parts or gaps R64A R64A) above, with A64R counted along it

B1: full-length Tim-3-Ig fusion protein (ex-Tim-3-Ig) (Fc fusion)
chain: RSLEDGYKVEVGKNAYLPCSYTLPTSGTLVPMCWGKGFCPWSQCTNELLRTDERNVTYQKSSRYQLKGDLNKGDVSLIIKNVTLDDHGTYCCRIQFPGLMNDKKLELKLDIKAAKVTPAQTAHGDSTTASPRTLTTERNGSETQTLVTLHNNNGTKISTWADEIKDSGETIRTA
modifications: biotinylated in some cell staining experiments
notes: expressed in NS.1 cells; also called flTIM-3-Ig; flTim-3-Ig; not shown: human IgG1 Fc tail
For B1, the binding result in test [1] is listed as “binds”.

B2: soluble Tim-3-Ig fusion protein (s-Tim-3-Ig) (Fc fusion)
chain: LEDGYKVEVGKNAYLPCSYTLPTSGTLVPMCWGKGFCPWSQCTNELLRTDERNVTYQKSSRYQLKGDLNKGDVSLIIKNVTLDDHGTYCCRIQFPGLMNDKKLELKLDIKA
modifications: biotinylated in some cell staining experiments
notes: not shown: human IgG1 Fc tail
As to B2, the binding result in test [2] is given as “binds”; in test [3], “binds”; in test [4] it was “no binding”; in test [1], “binds”.

B3: TIM-2-Ig (Fc fusion, UniProt Q8R183 22-231, looked up)
chain: HTAVQGLAGHPVTLPCIYSTHLGGIVPMCWGLGECRHSYCIRSLIWTNGYTVTHQRNSLYQLKGNISEGNVSLTIENTVVGDGGPYCCVVEIPGAFHFVDYMLEVKPEISTSPPTRPTATGRPTTISTRSTHVPTSTRVSTSTSPTPAHTETYKPEATTFYPDQTTAEVTETLPDTPADWHNTVTSSDDPWDDNTEVIPPQKPQKNLNKG
notes: Control Ig fusion; also called TIM-2 Ig fusion; not shown: Ig part of the fusion not described
For B3, the binding result in test [5] is reported as “no binding (tested: 5 µg)”; in test [6], “no binding”; in test [7] it was “no binding”.
